{"source": "patent US20230131339A1", "about": "“EPI-X4 BASED PEPTIDES AND DERIVATIVES THEREOF” (Universitaet Ulm, priority 2020, published 2023)", "molecules": {"B1": {"name": "JM#206 (peptide)", "peptide": "ILRWSRKLPCVSK(DOTA)", "notes": "JM#21 with DOTA; also called DOTA-K-JM#21"}, "B2": {"name": "JM#207 (peptide)", "peptide": "ILRWSRKLPSVSK(DOTA)", "notes": "JM#122 with DOTA; also called DOTA-K-JM#122"}}, "key": {"[1]": {"conditions": "mouse, in vivo, iv"}, "CXCR4 [2]": {"molecular_target": "T1, CXCR4 (Homo sapiens, UniProt P61073)", "T1 construct": "endogenous in cells; host or cells: SupT1 cells", "test": "12G5-assay | IC50 (nM)", "text": "(§1) Table printed on a drawing sheet, Figure 2\nTitle: A Truncated Palmitoylated-JM#21\nHead of the field: 12G5-assay | IC50 (nM)\nFirst copying reader's note: The table is the legend of the plot in panel A; the first column also carries the plot symbols, which are not copied.\nWhere the first naming reader finds the target: passage: Values determined by the competition assay represent the potency of a compound to compete with an antibody that specifically binds to the binding pocket (ECL2) of CXCR4"}, "CXCR4 [3]": {"molecular_target": "T1, CXCR4", "test": "12G5-assay IC50 (nM)", "text": "as §1\nTitle: B Truncated Palmitoylated-JM#21 N-terminally modified\nHead of the field: 12G5-assay IC50 (nM)\nFirst copying reader's note: The table doubles as the legend of the antibody competition plot beside it; the plot symbols before the names are not copied.\nWhere the first naming reader finds the target: passage: compete with an antibody that specifically binds to the binding pocket (ECL2) of CXCR4"}, "[4]": {"test_system": "CXCL12 induced migration of T-cells", "test": "Migration assay (transwell, Jurkat cells)", "format": "cell-based", "conditions": "30 nM peptide"}, "[5]": {"conditions": "s9, 8 h"}, "[6]": {"test": "Small animal SPECT/CT and PET/CT imaging (total body distribution)", "format": "in vivo, Balb/c mice", "conditions": "^68Ga-labeled, tail vein, 1 h p.i.", "method": "SPECT/CT: The total body distribution of [^177Lu]Lu-Pentixather was compared to [^177Lu]Lu-DOTA-K-JM #173 and [^177Lu]Lu-DOTA-K-JM #235. Healthy Balb/c mice were injected into the tail vein with 15-20 MBq ([…]) of ^177Lu-labeled complexes and SPECT/CT images was acquired 4 h post injection (p.i.). For acquiring the images, mice were euthanized by CO2 inhalation after 4 hours, measured in a suitable dose calibrator and imaged supine, head first, using a SPECT/CT system dedicated to imaging small animals (NanoSPECT/CTTM Bioscan Inc.). The images were reconstructed using proprietary HiSPECT iterative reconstruction and fused with CT images using proprietary InVivoScope (Bioscan) software.\nPET/CT: PET/CT imaging was performed to determine and compare the total body distribution of [^68Ga]Ga-Pentixather with [^68Ga]Ga-DOTA-K-JM #173. Healthy Balb/c mice were injected into the tail vein with 5-6 MBq ([…]) of ^68Ga-labeled complexes and PET/CT images were acquired 1 h p.i. For acquiring the images, mice were euthanized by CO2 inhalation after 1 h, measured in a suitable dose calibrator and imaged supine, head first, using a PET/CT system dedicated to imaging small animals (Molecubes). The images were reconstructed using the Molecubes software and fused with CT images using Vivo Quant. […]"}, "[7]": {"conditions": "mouse, in vivo, iv", "remark": "listed apart in the source"}, "[8]": {"molecular_target": "T2, CXC chemokine receptor type 4 (CXCR4) (human, UniProt P61073 1-352)", "T2 chain": "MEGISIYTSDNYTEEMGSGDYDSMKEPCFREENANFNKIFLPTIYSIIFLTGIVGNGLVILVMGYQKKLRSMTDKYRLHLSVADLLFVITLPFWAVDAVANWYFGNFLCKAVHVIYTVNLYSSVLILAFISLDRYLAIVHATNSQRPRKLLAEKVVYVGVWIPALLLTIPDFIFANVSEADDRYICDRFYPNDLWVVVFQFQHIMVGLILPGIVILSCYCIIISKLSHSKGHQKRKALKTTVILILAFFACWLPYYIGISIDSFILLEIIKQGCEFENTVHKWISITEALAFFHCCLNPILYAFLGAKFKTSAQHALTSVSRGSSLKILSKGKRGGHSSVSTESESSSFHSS", "test": "12G5 antibody competition"}, "[9]": {"molecular_target": "T3, CXC chemokine receptor type 4 (CXCR4) (human, UniProt P61073 1-352)", "test": "cell-based or functional assay"}, "[10]": {"molecular_target": "T2, CXC chemokine receptor type 4 (CXCR4)", "test": "12G5 antibody competition"}, "[11]": {"molecular_target": "T4, CXC chemokine receptor type 4 (CXCR4) (human), P61073", "T4 chain": "T2 chain", "test": "cell-based or functional assay"}, "[12]": {"molecular_target": "T4, CXC chemokine receptor type 4 (CXCR4) …", "test": "12G5-APC antibody competition on SupT1 cells, flow cytometry"}, "[13]": {"molecular_target": "T4, CXC chemokine receptor type 4 (CXCR4) …", "test": "competition", "conditions": "chains peptide; modification not given"}, "[14]": {"molecular_target": "T2, CXC chemokine receptor type 4 (CXCR4)", "test": "competition"}, "[15]": {"molecular_target": "T2, CXC chemokine receptor type 4 (CXCR4)", "test": "competition"}, "[16]": {"molecular_target": "T2, CXC chemokine receptor type 4 (CXCR4)", "test": "competition"}, "[17]": {"molecular_target": "T3, CXC chemokine receptor type 4 (CXCR4)", "test": "12G5-APC antibody competition on SupT1 cells, flow cytometry", "method": "To the right of the diagrams, an assignment of the curves to the tested peptides is explained. […] Three independent experiments were carried out for each peptide in each assay. The error bars refer to the standard deviation.\nAntibody competition assay. Competition of compounds with antibody binding was performed on SupT1 cells. For that cells were washed in PBS containing 1% FCS and 50,000 cells were then seeded per well in a 96 V-well plate. Buffer was removed and plates were precooled at 4° C. […] The antibody was used at a concentration closed to its determined Kd. 15 μl compounds were then added to the cells and 15 μl antibody immediately afterwards. Plates were incubated at 4° C. in the dark for 2 hours. Afterwards cells were washed twice with PBS containing 1% FCS and fixed with 2% PFA. Antibody binding was analyzed by flow cytometry (FACS CytoFLEX; Beckman Coulter®)."}, "[18]": {"molecular_target": "T3, CXC chemokine receptor type 4 (CXCR4)", "test": "antibody competition assay (FIG. 5)"}}, "note": "Where a SMILES comes first, the peptide text is derived from it. Where no end group is shown, it is not given here. Side-chain parts run from the residue outwards. [ ]: non-standard residue; d: D form. The star is where a group is joined. DOTA = O=C(O)CN1CCN(CC(=O)O)CCN(CC(=O)*)CCN(CC(=O)O)CC1; Stearoyl = CCCCCCCCCCCCCCCCCC(=O)*; Palmitoyl = CCCCCCCCCCCCCCCC(=O)*; Glu = glutamate linker"}
{"molecule": "C-deferoxamine linked JM #122: JM #122 with deferoxamine conjugated via an additional C-terminal cysteine as (succinimido-propionyl-desferrioxamine) acetate (ILRWSRKLPSVS-{C(succinimido-propionyl-desferrioxamine)}; also: acetate salt)", "values": [{"measurement": "biodistribution by PET", "setting": "[1]", "value": "rapid (5 min post injection) absorption of the peptide by the kidneys and subsequent release into the bladder"}]}
{"molecule": "CC(C)C[C@H](NC(=O)[C@@H](NC(=O)[C@@H]1CCCN1C(=O)[C@@H](NC(=O)[C@H](CO)NC(=O)[C@@H](NC(=O)[C@H](CCC(N)=O)NC(=O)[C@@H]1CCCN1C(=O)[C@@H](NC(=O)[C@H](CCCCN)NC(=O)[C@H](CCCCN)NC(=O)[C@@H](NC(=O)[C@H](Cc1ccc(O)cc1)NC(=O)[C@H](CCCNC(=N)N)NC(=O)[C@@H](NC(=O)[C@@H](N)CC(C)C)C(C)C)[C@@H](C)O)C(C)C)C(C)C)[C@@H](C)O)[C@@H](C)O)C(=O)O", "note": "[EPIX4] (H-LVRYTKKVPQVSTPTL-OH; N-terminus and C-terminus assumed)", "values": [{"measurement": "IC50", "setting": "CXCR4 [2]", "value": 1780, "unit": "nM"}, {"measurement": "IC50", "setting": "CXCR4 [3]", "value": 1460, "unit": "nM"}]}
{"molecule": "ILRWSRK(Glu-Ste)-NH2 (ILRWSRK([Glu-Stearoyl])-NH2) [JM #255]", "values": [{"measurement": "inhibition of cell migration", "setting": "[4]", "value": "almost complete inhibition of cell migration"}, {"measurement": "remaining activity in human S9 liver fractions after 8 hours", "setting": "[5]", "value": "more rapidly degraded compared to their N-terminally modified variants"}]}
{"molecule": "CC[C@@H](C)[C@@H](N)C(=O)N[C@@H](CC(C)C)C(=O)N[C@@H](CCCNC(=N)N)C(=O)N[C@@H](Cc1c[nH]c2ccccc12)C(=O)N[C@@H](CO)C(=O)N[C@@H](CCCNC(=N)N)C(=O)N[C@@H](CCCCN)C(=O)N[C@@H](CCCCNC(=O)CN1CCN(CC(=O)O)CCN(CC(=O)O)CCN(CC(=O)O)CC1)C(N)=O", "note": "[[^68Ga]Ga-DOTA-K-JM#173] [metal not drawn] (H-[dI]LRWSRKK(DOTA)-NH2)", "values": [{"measurement": "total body distribution, PET/CT", "setting": "[6]", "value": "no specific uptake in any organ in vivo"}]}
{"molecule": "ILRWSRK(Glu-Ste)LPCVS (ILRWSRK([Glu-Stearoyl])LPCVS) [JM #198]", "values": [{"measurement": "remaining activity in human S9 liver fractions after 8 hours", "setting": "[5]", "value": "more stable than its palmitoylated counterpart JM #143"}, {"measurement": "remaining activity in plasma in vivo 4 hours post injection", "setting": "[7]; 4 h", "value": "remained completely active"}, {"measurement": "remaining activity in plasma in vivo 8 hours post injection", "setting": "[7]; 8 h", "value": 33, "unit": "%"}, {"measurement": "remaining activity in plasma in vivo after 24 hours", "setting": "[7]; 24 h", "value": "completely eliminated"}]}
{"molecule": "ILRWSRKLK([Glu-Palmitoyl])-NH2", "note": "[JM#193]", "values": [{"measurement": "IC50", "setting": "[8]", "value": 3, "unit": "nM"}]}
{"molecule": "ILRWSRKLP-NH2", "note": "[JM#114]", "values": [{"measurement": "IC50, HIV inhibition assay", "setting": "[9]", "value": "> 150", "unit": "nM"}, {"measurement": "IC50", "setting": "[10]", "value": 232, "unit": "nM"}, {"measurement": "IC50", "setting": "[8]", "value": 268, "unit": "nM"}]}
{"molecule": "LVRYTKKVPQVSTPTL", "note": "[EPI-X4]", "values": [{"measurement": "IC50, X4-HIV-1 inhibition assay", "setting": "[11]", "value": 8630, "unit": "nM"}, {"measurement": "reduction of AKT phosphorylation at 10 µM", "setting": "[11]", "value": 40, "unit": "%"}, {"measurement": "IC50", "setting": "[12]", "value": 2500, "unit": "nM"}, {"measurement": "IC50", "setting": "[13]", "value": 2140, "unit": "nM"}]}
{"molecule": "IVRWSKKVPCVS", "note": "[WSC02]", "values": [{"measurement": "IC50, X4-HIV-1 inhibition assay", "setting": "[9]", "value": 310, "unit": "nM"}, {"measurement": "IC50", "setting": "[14]", "value": 254, "unit": "nM"}, {"measurement": "IC50", "setting": "[15]", "value": 413, "unit": "nM"}, {"measurement": "IC50", "setting": "[16]", "value": 274, "unit": "nM"}, {"measurement": "IC50", "setting": "[17]", "value": 350, "unit": "nM"}]}
{"molecule": "ILRWSRKK-NH2 (not fully specified (residue 8))", "note": "[JM#191]", "values": [{"measurement": "IC50", "setting": "[8]", "value": 3, "unit": "nM"}, {"measurement": "IC50", "setting": "[17]", "value": 1, "unit": "nM"}, {"measurement": "fold more effective binding than EPI-X4", "setting": "[17]", "value": "> 2000", "unit": "fold"}, {"measurement": "fold more effective than WSC02", "setting": "[17]", "value": "~300", "unit": "fold"}]}
{"molecule": "B1", "values": [{"measurement": "binding result", "setting": "[18]", "value": "binds"}, {"measurement": "IC50", "setting": "[15]", "value": 206, "unit": "nM"}]}
{"molecule": "B2", "values": [{"measurement": "binding result", "setting": "[18]", "value": "binds"}, {"measurement": "IC50", "setting": "[15]", "value": 207, "unit": "nM"}]}
